From patent US20040018971A1 (published 2004)

Tests used:
HLA-A*0201 [1] = biological target: T1, HLA-A*0201 (human); experiment: competition with 125I-labelled standard peptide 941.01 for purified HLA, gel filtration
T1 construct: also called HLA-A2.1

HLA-A*0201 [2] = biological target: T2, HLA-A*0201 (human); experiment: competitive inhibition of 125I-labelled standard peptide binding to purified HLA, gel filtration
T2 construct: also called HLA-A2.1

HLA-A*0201 [3] = biological target: T3, HLA-A*0201 (human); experiment: inhibition of 125I-labelled standard peptide binding to purified HLA, gel filtration; ratio = IC50 of standard / IC50 of test peptide
T3 construct: also called HLA-A2.1

HLA-B*0702 [4] = biological target: HLA-B*0702 (human); experiment: competition with 125I probe peptide, purified HLA
HLA-B*5101 [5] = biological target: HLA-B*5101 (human); experiment: competition with 125I probe peptide, purified HLA
HLA-B*5301 [6] = biological target: HLA-B*5301 (human); experiment: competition with 125I probe peptide, purified HLA
HLA-B*5401 [7] = biological target: HLA-B*5401 (human); experiment: competition with 125I probe peptide, purified HLA
HLA-B*3501 = HLA-B*3501 (human); experiment: competition with 125I probe peptide, purified HLA
HLA-B*0702 [8] = biological target: HLA-B*0702 (human); experiment: competition vs 125I-labelled probe peptide, purified HLA, gel filtration
HLA-B*5101 [9] = biological target: HLA-B*5101 (human); experiment: as above
HLA-B*5301 [10] = biological target: HLA-B*5301 (human); experiment: as above
HLA-B*5401 [11] = biological target: HLA-B*5401 (human); experiment: as above

With ALVTYNTDT (also called Her2/neu.270 (9-mer)) [HER2/neu peptide, position 270, 9 amino acids] the relative binding ratio (HLA-A*0201 [1]) was 0.0001 ratio (IC50 of standard peptide / IC50 of test peptide).

For ALLPPGAAST (also called Her2/neu.14 (10-mer)) [HER2/neu peptide, position 14, 10 amino acids], the relative binding ratio (HLA-A*0201 [1]) was 0.0001 ratio (IC50 of standard peptide / IC50 of test peptide).

In the case of LVSEFSRMA (Synthetic peptide) [HER2/neu A02 supermotif peptide, position 972, 9 amino acids], the “relative binding ratio (IC50 of standard peptide / IC50 of test peptide)” value (HLA-A*0201 [2]) is reported as 0.0001 ratio.

SLRELGSGL [HER2/neu peptide, position 457, 9 amino acids] was tested, and the relative binding ratio (HLA-A*0201 [3]) was 0.0002 ratio to standard peptide.

LVCPLHNQEV (Synthetic peptide) [HER2/neu A02 supermotif peptide, position 313, 10 amino acids] was tested, and the “relative binding ratio (IC50 of standard peptide / IC50 of test peptide)” value (HLA-A*0201 [2]) was 0.0002 ratio.

For DIFHKNNQL (also called Her2/neu.171 (9-mer)) [HER2/neu peptide, position 171, 9 amino acids], the relative binding ratio (HLA-A*0201 [1]) was 0.0002 ratio (IC50 of standard peptide / IC50 of test peptide).

CPLHNQEVTI (analog peptide) [Her2/neu.315.I10] was tested, and the IC50 (HLA-B*0702 [4]) was 458 nM, the IC50 (HLA-B*5101 [5]) was 42 nM and the IC50 (HLA-B*5301 [6]) was 274 nM. For the same binder, the IC50 (HLA-B*5401 [7]) was 556 nM.

CVTACPYNYL (also called Her2/neu.295 (10-mer)) [HER2/neu peptide, position 295, 10 amino acids] was tested, and the relative binding ratio (HLA-A*0201 [1]) was 0.0001 ratio (IC50 of standard peptide / IC50 of test peptide).

With MIMVKCWMI (Synthetic peptide) [HER2/neu A02 supermotif peptide, position 953, 9 amino acids] the “relative binding ratio (IC50 of standard peptide / IC50 of test peptide)” value (HLA-A*0201 [2]) was 0.0051 ratio.

NVKIPVAIKV (Synthetic peptide) [HER2/neu A02 supermotif peptide, position 745, 10 amino acids] was tested, and the “relative binding ratio (IC50 of standard peptide / IC50 of test peptide)” value (HLA-A*0201 [2]) was 0.0001 ratio.

RLRIVRGTQL [HER2/neu peptide, position 98, 10 amino acids] was tested, and the relative binding ratio (HLA-A*0201 [3]) was 0.0001 ratio to standard peptide.

With TIDVYMIMV [HER2/neu peptide, position 948, 9 amino acids] the relative binding ratio (HLA-A*0201 [3]) was 0.0005 ratio to standard peptide.

Work on FPTNASLSFI (analog peptide) [Her2/neu.65.F1I10] yielded an IC50 (HLA-B*0702 [4]) of 120 nM, an IC50 (HLA-B*3501) of 424 nM and an IC50 (HLA-B*5101 [5]) of 23 nM. It also gave an IC50 (HLA-B*5301 [6]) of 85 nM and an IC50 (HLA-B*5401 [7]) of 53 nM.

With RLPASPETHL [HER2/neu peptide, position 34, 10 amino acids] the relative binding ratio (HLA-A*0201 [3]) was 0.0001 ratio to standard peptide.

For SVFQNLQVI [HER2/neu peptide, position 423, 9 amino acids], the relative binding ratio (HLA-A*0201 [3]) was 0.0017 ratio to standard peptide.

In the case of AMPNQAQMRI (also called Her2/neu.705 (10-mer)) [HER2/neu peptide, position 705, 10 amino acids], the relative binding ratio (HLA-A*0201 [1]) is reported as 0.0007 ratio (IC50 of standard peptide / IC50 of test peptide).

In the case of SLPTHDPSPL [HER2/neu peptide, position 1100, 10 amino acids], the relative binding ratio (HLA-A*0201 [3]) is reported as 0.0059 ratio to standard peptide.

For RMARDPQRFV [HER2/neu peptide, position 978, 10 amino acids], the relative binding ratio (HLA-A*0201 [3]) was 0.002 ratio to standard peptide.

In the case of AVLDNGDPL (also called Her2/neu.115 (9-mer)) [HER2/neu peptide, position 115, 9 amino acids], the relative binding ratio (HLA-A*0201 [1]) is reported as 0.0004 ratio (IC50 of standard peptide / IC50 of test peptide).

B1: HER2/neu peptide, position 413, 10 amino acids (peptide)
peptide: SAWPDSLPDL
notes: T0022 prints L there and the analog Her2/neu.415.I8 implies a native L, so L is used
For B1, the relative binding ratio (HLA-A*0201 [3]) was 0.0002 ratio to standard peptide.

With DIQEVQGYVL (also called Her2/neu.76 (10-mer)) [HER2/neu peptide, position 76, 10 amino acids] the relative binding ratio (HLA-A*0201 [1]) was 0.0001 ratio (IC50 of standard peptide / IC50 of test peptide).

With NLQVIRGRIL (Synthetic peptide) [HER2/neu A02 supermotif peptide, position 427, 10 amino acids] the “relative binding ratio (IC50 of standard peptide / IC50 of test peptide)” value (HLA-A*0201 [2]) was 0.0001 ratio.

RASPLTSII [HER2/neu peptide, position 647, 9 amino acids] was tested, and the relative binding ratio (HLA-A*0201 [3]) was 0.0002 ratio to standard peptide.

B2: Her2/neu.1157.F1I9 (peptide)
peptide: FPAARPAGI
notes: 9-mer analog of the HER2/neu peptide starting at position 1157
B2 showed an IC50 (HLA-B*0702 [8]) of 9.3 nM, an IC50 (HLA-B*5101 [9]) of 131 nM and an IC50 (HLA-B*5301 [10]) of 4230 nM. It also gave an IC50 (HLA-B*5401 [11]) of 48 nM.

DLGMGAAKGL (also called Her2/neu.1089 (10-mer)) [HER2/neu peptide, position 1089, 10 amino acids] was tested, and the relative binding ratio (HLA-A*0201 [1]) was 0.0001 ratio (IC50 of standard peptide / IC50 of test peptide).

With PAREIPDLL (Synthetic peptide) [HER2/neu A02 supermotif peptide, position 927, 9 amino acids] the “relative binding ratio (IC50 of standard peptide / IC50 of test peptide)” value (HLA-A*0201 [2]) was 0.0001 ratio.

With AARPAGATL (also called Her2/neu.1159 (9-mer)) [HER2/neu peptide, position 1159, 9 amino acids] the relative binding ratio (HLA-A*0201 [1]) was 0.0001 ratio (IC50 of standard peptide / IC50 of test peptide).

For FPHQALLHTA (analog peptide) [Her2/neu.488.F1], the IC50 (HLA-B*0702 [4]) was 393 nM, the IC50 (HLA-B*3501) was 379 nM and the IC50 (HLA-B*5101 [5]) was 4230 nM. The IC50 (HLA-B*5401 [7]) was 1.3 nM.

For TAPLQPEQL [HER2/neu peptide, position 389, 9 amino acids], the relative binding ratio (HLA-A*0201 [3]) was 0.0002 ratio to standard peptide.
